# B1: RAB40B (parent)
# chain: YSLTTSSTHKRSSLRKVKLVRPPQ
# B2: SLC35F2 (parent)
# chain: QYLAERYKVNTPMLQSFINYCLLF
# Variants of: B1
# Test: protein stability index of a GFP-peptide fusion (GPS, HEK-293T) (PSI 1-6); higher = more stable
# Conditions: c terminus: a fixed tail appended
# 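Note: lentivirally expressed fusions sorted by FACS into six bins by GFP to DsRed ratio, PSI derived from sequencing read proportions per bin multiplied by bin number.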
row,Variant,protein stability index
1,S2L,2.48
2,S2K,2.95
3,S2G,3.06
4,S2M,2.81
5,S2E,3.12
6,S2A,2.44
7,S2D,3.75
8,S2H,2.09
9,S2I,1.98
10,S2F,1.82
11,S2C,2.3
12,Y1S,4.16
13,Y1E,4.12
14,Y1M,3.2
15,Y1R,3.94
16,Y1T,3.66
17,Y1C,3.16
18,Y1D,4.11
19,Y1P,3.97
20,Y1N,4.04
21,Y1H,3.46
22,Y1I,3.15
23,Y1L,3.15
24,Y1G,3.75
25,Y1V,2.74
26,Y1A,3.99
27,Y1Q,3.82
28,Y1W,3.19
29,Y1K,3.61
30,Y1F,2.81

# Variants of: B2
# Test: as above
# Conditions: c terminus: a fixed tail appended
row,Variant,protein stability index
1,L14N,2.12
2,L14T,2.65
3,L14H,2.11
4,L14K,2.38
5,L14W,2.4
6,L14P,2.12
7,L14G,2.08
8,L14R,2.66
9,L14E,2.45
10,L14C,2.03
11,L14F,1.69
12,L14A,2.37
13,L14S,1.87
14,L14I,2.73
15,L14V,2.31
16,L14Q,3.39
17,L14D,2.82
18,L14M,3.31
19,L14Y,3.03
20,N19S,2.38
21,N19V,2.75
22,N19H,2.18
23,N19K,2.56
24,N19W,2.94
25,N19Y,2.31
26,N19I,1.48

row,Variant,protein stability index
1,N19T,2.51
2,N19R,2.35
3,N19M,2.08
4,N19G,2.7
5,N19E,2.22
6,N19D,2.49
7,N19L,1.71
8,N19Q,3.31
9,N19F,2.49
10,N19A,3.55
11,N19P,2.7
12,Y20D,1.81
13,Y20T,2.27
14,Y20M,2.09
15,Y20L,2.94
16,Y20R,2.47
17,Y20E,2.09
18,Y20G,2.35
19,Y20I,2.62
20,Y20S,2.3
21,Y20A,3.18
22,Y20H,2.97
23,Y20K,2.5
24,Y20C,2.64
25,Y20V,2.78
26,Y20P,2.17

row,Variant,protein stability index
1,Y20N,2.41
2,Y20F,3.1
3,Y20W,2.03
4,Y20Q,2.56
5,V9L,2.6
6,V9P,2.24
7,V9S,2.58
8,V9M,2.54
9,V9H,2.48
10,V9F,3.49
11,V9R,1.86
12,V9N,2.23
13,V9G,2.3
14,V9W,1.98
15,V9Q,2.87
16,V9E,2.65
17,V9A,1.65
18,V9D,1.8
19,V9K,2.37
20,V9Y,2.06
21,V9C,2.68
22,V9I,2.51
23,V9T,2.4
24,M13L,1.83
25,M13I,2.52
26,M13A,3.48

row,Variant,protein stability index
1,M13H,2.59
2,M13S,2.93
3,M13C,3.76
4,M13V,3.22
5,M13N,3.77
6,M13Y,2.4
7,M13P,2.69
8,M13G,2.2
9,M13T,2.74
10,M13E,2.99
11,M13K,2.04
12,M13F,2.34
13,M13D,2.2
14,M13R,2.64
15,M13Q,2.02
16,M13W,1.9
17,Q15I,1.67
18,Q15E,3.23
19,Q15D,3.24
20,Q15W,2.83
21,Q15K,1.28
22,Q15N,2.61
23,Q15S,3.63
24,Q15Y,3.21
25,Q15P,3.78
26,Q15T,3.41

row,Variant,protein stability index
1,Q15M,2.15
2,Q15A,2.71
3,Q15R,2.29
4,Q15C,2.95
5,Q15G,3.36
6,Q15V,2.86
7,Q15L,3.28
8,Q15H,2.23
9,Q15F,3.17
10,P12M,3.68
11,P12W,1.29
12,P12A,4.77
13,P12G,2.73
14,P12S,2.35
15,P12E,2.52
16,P12I,3.44
17,P12K,1.74
18,P12L,3.97
19,P12D,3.1
20,P12T,2.54
21,P12C,3.04
22,P12R,3.12
23,P12H,3.1
24,P12Q,1.7
25,P12F,3.15
26,P12N,2.72

row,Variant,protein stability index
1,P12Y,3.33
2,F17M,3.02
3,F17E,2.3
4,F17A,1.76
5,F17C,3.45
6,F17T,2.45
7,F17D,1.82
8,F17P,1.8
9,F17Y,2.14
10,F17K,2.65
11,F17W,1.6
12,F17H,3.26
13,F17G,2.45
14,F17N,2.12
15,F17V,3.29
16,F17R,3.78
17,F17Q,2.34
18,F17I,3
19,F17S,3.47
20,C21M,2.52
21,C21I,2.06
22,C21R,2.05
23,C21A,3.53
24,C21W,2.44
25,C21V,1.62
26,C21S,2.67

row,Variant,protein stability index
1,C21K,3.46
2,C21N,2.96
3,C21H,2.29
4,C21F,1.99
5,C21P,2.55
6,C21Y,3.61
7,C21G,2.33
8,C21Q,2.3
9,C21L,2.52
10,C21D,2.36
11,C21T,2.11
12,C21E,1.65
13,L23E,1.78
14,L23I,3.19
15,L23Q,1.3
16,L23Y,2.86
17,L23T,1.94
18,L23P,1.63
19,L23M,2.7
20,L23F,2.96
21,L23S,2.08
22,L23N,2.59
23,L23D,2.96
24,L23H,1.81
25,L23A,2.27
26,L23C,1.69

row,Variant,protein stability index
1,L23G,1.91
2,L23R,2.46
3,L23K,1.64
4,L23W,2.47
5,F24I,3.21
6,F24P,3.94
7,F24T,2.69
8,F24Q,3.26
9,F24R,2.88
10,F24W,2.19
11,F24M,3.6
12,F24G,2.48
13,F24L,2.95
14,F24N,2.58
15,F24S,1.81
16,F24E,2.28
17,F24C,1.99
18,F24H,2.13
19,F24K,1.98
20,F24V,3.47
21,F24Y,3.33
22,F24D,2.21
23,K8Y,3.27
24,K8T,2.43
25,K8Q,2.13
26,K8R,1.63

row,Variant,protein stability index
1,K8S,3.15
2,K8V,2.61
3,K8W,2.55
4,L22A,1.57
5,L22M,2.85
6,L22N,2.29
7,L22E,3.47
8,L22H,3.33
9,L22R,2.03
10,L22K,2.83
11,L22Y,3.57
12,L22P,1.82
13,L22V,3.01
14,L22C,1.89
15,L22S,2.21
16,L22F,3.25
17,L22Q,2.44
18,L22I,3.04
19,L22T,2.29
20,L22D,2.05
21,L22G,2.23
22,T11Q,2.96
23,T11L,2.89
24,T11R,2.57
25,T11I,2.6
26,T11Y,3.51

row,Variant,protein stability index
1,T11C,3.08
2,T11H,2.19
3,T11D,2.63
4,T11N,2.71
5,T11V,2.5
6,T11F,2.04
7,T11A,2.13
8,T11M,2.69
9,T11P,1.8
10,T11E,2.27
11,T11K,2.21
12,T11W,2.12
13,T11G,2.28
14,T11S,2.65
15,S16A,2.43
16,S16W,1.87
17,S16N,2.36
18,S16D,3
19,S16E,2.19
20,S16V,3.01
21,S16K,2.76
22,S16R,2.63
23,S16F,2.11
24,S16T,1.72
25,S16H,1.83
26,S16P,3.19

row,Variant,protein stability index
1,S16Q,1.65
2,S16I,3
3,S16C,2.44
4,S16L,3.45
5,S16Y,1.79
6,S16G,2.22
7,I18M,2.56
8,I18F,1.98
9,I18D,3.29
10,I18T,2.82
11,I18W,2.53
12,I18Y,2.15
13,I18R,3.24
14,I18G,1.92
15,I18C,3.62
16,I18S,2.34
17,I18A,1.93
18,I18P,3.3
19,I18H,2.9
20,I18L,2.96
21,I18E,2.75
22,I18V,1.34
23,I18K,1.99
24,I18N,2.1
25,I18Q,2.48
26,N10K,2.14

row,Variant,protein stability index
1,N10F,2.88
2,N10W,2.29
3,N10I,2.88
4,N10T,2.51
5,N10P,1.68
6,N10M,2.96
7,N10G,2.54
8,N10V,2.92
9,N10Y,2.75
10,N10R,1.85
11,N10Q,1.87
12,N10E,2.2
13,N10C,2.2
14,N10S,2.36
15,N10L,3.17
16,N10D,2.83
17,N10A,2.09
18,N10H,2.71
